Source: publication PMC4893198
Blank lines part the entries; values can stand above or below the molecule they belong to.

Key:
OST-NLS-mCherry-NRF2 = OST-NLS-mCherry-NRF2 (UniProt Q16236); test: pull-down
OST-progerin (human) = OST-progerin (human) (UniProt P02545); test: pull-down

- interaction relative to WT lamin A (OST-NLS-mCherry-NRF2): 248%
Molecule: HA-progerin (from UniProt P02545-6 1-614) (natural protein)

- NRF2 pulled down relative to OST-lamin A (OST-progerin (human)): 142%
B1: FLAG-NLS-NRF2 (natural protein)
chain: MMDLELPPPGLPSQQDMDLIDILWRQDIDLGVSREVFDFSQRRKEYELEKQKKLEKERQEQLQKEQEKAFFAQLQLDEETGEFLPIQPAQHIQSETSGSANYSQVAHIPKSDALYFDDCMQLLAQTFPFVDDNEVSSATFQSLVPDIPGHIESPVFIATNQAQSPETSVAQVAPVDLDGMQQDIEQVWEELLSIPELQCLNIENDKLVETTMVPSPEAKLTEVDNYHFYSSIPSMEKEVGNCSPHFLNAFEDSFSSILSTEDPNQLTVNSLNSDATVNTDFGDEFYSAFIAEPSISNSMPSPATLSHSLSELLNGPIDVSDLSLCKAFNQNHPESTAEFNDSDSGISLNTSPSVASPEHSVESSSYGDTLLGLSDSEVEELDSAPGSVKQNGPKTPVHSSGDMVQPLSPSQGQSTHVHDAQCENTPEKELPVSPGHRKTPFTKDKHSSRLEAHLTRDELRAKALHIPFPVEKIINLPVVDFNEMMSKEQFNEAQLALIRDIRRRGKNKVAAQNCRKRKLENIVELEQDLDHLKDEKEKLLKEKGENDKSLHLLKKQLSTLYLEVFSMLRDEDGKPYSPSEYSLQQTRDGNVFLVPKSKKPDVKKN

- NRF2 bound relative to OST-lamin A (OST-progerin (human)): 275%
B2: recombinant HIS6x-NRF2 (natural protein)
chain: MMDLELPPPGLPSQQDMDLIDILWRQDIDLGVSREVFDFSQRRKEYELEKQKKLEKERQEQLQKEQEKAFFAQLQLDEETGEFLPIQPAQHIQSETSGSANYSQVAHIPKSDALYFDDCMQLLAQTFPFVDDNEVSSATFQSLVPDIPGHIESPVFIATNQAQSPETSVAQVAPVDLDGMQQDIEQVWEELLSIPELQCLNIENDKLVETTMVPSPEAKLTEVDNYHFYSSIPSMEKEVGNCSPHFLNAFEDSFSSILSTEDPNQLTVNSLNSDATVNTDFGDEFYSAFIAEPSISNSMPSPATLSHSLSELLNGPIDVSDLSLCKAFNQNHPESTAEFNDSDSGISLNTSPSVASPEHSVESSSYGDTLLGLSDSEVEELDSAPGSVKQNGPKTPVHSSGDMVQPLSPSQGQSTHVHDAQCENTPEKELPVSPGHRKTPFTKDKHSSRLEAHLTRDELRAKALHIPFPVEKIINLPVVDFNEMMSKEQFNEAQLALIRDIRRRGKNKVAAQNCRKRKLENIVELEQDLDHLKDEKEKLLKEKGENDKSLHLLKKQLSTLYLEVFSMLRDEDGKPYSPSEYSLQQTRDGNVFLVPKSKKPDVKKN
